According to patent publication US20240117038A1 (Ablynx, published 2024):

T1: human CX3CR1 V249I (human, UniProt P49238 1-355)
T1 construct: Transiently transfected in HEK293T cells (pcDNA3.1); also called huCX3CR1 variant V249I (Rs3732379); printed V2491 in the text
T1 sequence: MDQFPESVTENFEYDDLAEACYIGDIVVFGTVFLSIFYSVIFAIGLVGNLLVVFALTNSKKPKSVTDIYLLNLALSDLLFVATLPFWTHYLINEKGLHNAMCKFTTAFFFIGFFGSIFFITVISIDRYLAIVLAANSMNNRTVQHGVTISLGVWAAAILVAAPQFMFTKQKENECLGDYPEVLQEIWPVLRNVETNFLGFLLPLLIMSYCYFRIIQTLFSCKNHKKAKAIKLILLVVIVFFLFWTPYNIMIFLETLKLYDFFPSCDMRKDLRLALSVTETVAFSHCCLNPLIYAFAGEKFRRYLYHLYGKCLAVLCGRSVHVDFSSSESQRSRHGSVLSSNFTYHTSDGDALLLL

T2: human CX3CR1 (human, UniProt P49238 1-355)
T2 construct: Overexpressed on CHO K1, Ba/F3 or HEK293T cells; also called huCX3CR1; hCX3CR1
T2 sequence: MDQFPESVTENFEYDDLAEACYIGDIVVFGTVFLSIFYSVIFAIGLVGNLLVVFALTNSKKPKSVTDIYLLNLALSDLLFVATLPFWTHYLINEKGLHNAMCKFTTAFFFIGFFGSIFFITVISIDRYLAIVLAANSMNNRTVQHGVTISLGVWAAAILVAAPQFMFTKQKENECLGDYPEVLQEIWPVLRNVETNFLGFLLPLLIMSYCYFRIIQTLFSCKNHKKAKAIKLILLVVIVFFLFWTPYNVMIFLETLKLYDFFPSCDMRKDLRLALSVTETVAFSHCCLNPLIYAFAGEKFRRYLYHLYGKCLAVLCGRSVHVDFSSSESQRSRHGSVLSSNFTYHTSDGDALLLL


Legend:
[1] = biological target: T3, human CCR5 (human, UniProt P51681 1-352); test: flow cytometry on CHO-K1 cells expressing human CCR5
T3 construct: whole, on cells; also called huCCR5
Description: (§1) CHO cells overexpressing human or cynomolgus CX3CR1 were generated using techniques known in the art. Cells were harvested and resuspended in assay buffer (PBS, 2% FBS, 0.05% NaN3) and seeded separately in 384-well Bio-One V-bottom plates (Greiner, Cat. No. 781280), with a total of 2E04 cells seeded per well. After washing, serial dilutions of multivalent ISVD construct (starting from 250 nM, 3-fold dilution, 11 points, diluted in assay buffer), were added and incubated for 4 hours at 4° C. Binding was performed in the presence of 30 uM HSA (Sigma-Aldrich, Cat. No. A8763). Plates were then washed 3 times and cells were incubated with an anti-VHH mouse antibody (3300-fold diluted in assay buffer) for 30 minutes at 4′° C. […] Plates were finally washed 3 times and cells were resuspended in PI (Miltenyi Biotec, Cat. No. 130-093-233, 1000-fold diluted in assay buffer). Cell suspensions were analyzed with iQue Screener PLUS (Intellicyt). EC50s were estimated by dose response modelling. Curves were fit using 4 parameter logistic regression in GraphPad (GraphPad Software Inc.). A purified anti-human CX3CR1 antibody [K0124E1] (BioLegend, Cat. No. 355701/355702) was used as positive control to detect CX3CR1 expression on the cell surface.
Specificity of the 5 selected multivalent ISVD constructs for the huCX3CR1 receptor was evaluated by performing a FACS binding experiment on CHO-K1 cells expressing human CCR2 or human CCR5. CHO cells overexpressing huCCR2 or huCCR5 were generated using techniques known in the art. Binding of the multivalent ISVD constructs to huCR2 or huCCR5 expressed on the cell surfaces was examined by flow cytometry as described in example 5.1.

[2] = biological target: T1, human CX3CR1 V249I; test: flow cytometry on transiently transfected HEK293T cells, human CX3CR1 V249I
Description: as §1, with “After” for “CHO cells overexpressing human or cynomolgus CX3CR1 were generated using techniques known in the art. Cells were harvested and resuspended in assay buffer (PBS, 2% FBS, 0.05% NaN3) and seeded separately in 384-well Bio-One V-bottom plates (Greiner, Cat. No. 781280), with a total of 2E04 cells seeded per well. After”
(§2) Two important SNPs are described in huCX3CR1, i.e. V2491 (Rs3732379) and T280M (Rs3732378), which might influence receptor activity and binding by the ISVD. […] Different combinations of these SNPs were introduced in human CX3CR1, and binding by 5 selected multivalent ISVD constructs was assessed with flow cytometry after transient transfection of the huCX3CR1 variants in HEK293T cells.
(§3) In short, the CX3CR1 constructs were cloned into pcDNA3.1 (ThermoFisher Scientific, Cat. No. V79020) and plasmid DNA was prepared from Escherichia coli TOP10 cells. HEK293T cells were seeded at a concentration of 1.5E06 cells per T75 flask and incubated overnight at 37° C. in DMEM medium (Gibco, Cat. No. 31966) supplemented with 10% FBS (Sigma. Cat. No. F7524). The medium was then replaced by Opti-MEM medium (Gibco, Cat. No. 31985). A mixture of 9 μg plasmid DNA, 27 μL Fugene 6 (Promega, Cat. No. E2691) in a final volume of 1 mL Opti-MEM was incubated for 15 minutes at room temperature and then added to the cells. After 3 hours incubation at 37° C., 10 mL of DMEM supplemented with 20% FBS was added, and incubation continued.

[3] = biological target: T2, human CX3CR1; test: flow cytometry on transiently transfected HEK293T cells, human CX3CR1 WT
Description: as §1, with “After” for “CHO cells overexpressing human or cynomolgus CX3CR1 were generated using techniques known in the art. Cells were harvested and resuspended in assay buffer (PBS, 2% FBS, 0.05% NaN3) and seeded separately in 384-well Bio-One V-bottom plates (Greiner, Cat. No. 781280), with a total of 2E04 cells seeded per well. After”
as §2, §3

[4] = biological target: T2, human CX3CR1; test: competition flow cytometry vs soluble huCX3CL1-AF647 on CHO K1 huCX3CR1 cells, 30 uM HSA

T3 sequence (P51681 whole entry): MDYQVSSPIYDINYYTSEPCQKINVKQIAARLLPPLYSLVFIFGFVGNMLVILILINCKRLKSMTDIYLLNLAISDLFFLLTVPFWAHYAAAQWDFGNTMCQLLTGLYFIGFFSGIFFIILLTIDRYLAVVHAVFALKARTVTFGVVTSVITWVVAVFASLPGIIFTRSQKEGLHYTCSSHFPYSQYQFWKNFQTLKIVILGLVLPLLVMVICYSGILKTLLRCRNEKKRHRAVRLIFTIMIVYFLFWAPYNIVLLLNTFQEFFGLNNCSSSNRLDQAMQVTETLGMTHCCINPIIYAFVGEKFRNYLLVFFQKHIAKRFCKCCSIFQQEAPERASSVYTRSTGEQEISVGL

binding result [1] | EC50 [2] [nM] | EC50 [3] [nM] | % inhibition [4] [%] | IC50 [4] [nM] | Binder
no binding |  | 0.065 | 98 | 3.8 | A041600025 (VHH, Trivalent ISVD construct (two anti-CX3CR1 ISVDs, one anti-albumin ISVD), C-terminal alanine included in the entry; also called 54A12_SO (E1D)-9GS-ALB23002-9GS-54A12_SO-A) DVQLVESGGGSVQPGGSLRLSCAASGSIFSSTAMAWYRQAPGKQRDLVAVISTVGITKYADSVKGRFTISRDNAKNTVYLQMNSLRPEDTALYYCTSDARRGWDTRYWGQGTLVTVSSGGGGSGGGSEVQLVESGGGVVQPGGSLRLSCAASGFTFRSFGMSWVRQAPGKGPEWVSSISGSGSDTLYADSVKGRFTISRDNSKNTLYLQMNSLRPEDTALYYCTIGGSLSRSSQGTLVTVSSGGGGSGGGSEVQLVESGGGSVQPGGSLRLSCAASGSIFSSTAMAWYRQAPGKQRDLVAVISTVGITKYADSVKGRFTISRDNAKNTVYLQMNSLRPEDTALYYCTSDARRGWDTRYWGQGTLVTVSSA
no binding | 0.045 | 0.1 | 95 | 4.5 | A041600034 (VHH, Trivalent ISVD construct; also called 54A12_SO (E1D)-9GS-ALB23002-9GS-66B02_SO-A) DVQLVESGGGSVQPGGSLRLSCAASGSIFSSTAMAWYRQAPGKQRDLVAVISTVGITKYADSVKGRFTISRDNAKNTVYLQMNSLRPEDTALYYCTSDARRGWDTRYWGQGTLVTVSSGGGGSGGGSEVQLVESGGGVVQPGGSLRLSCAASGFTFRSFGMSWVRQAPGKGPEWVSSISGSGSDTLYADSVKGRFTISRDNSKNTLYLQMNSLRPEDTALYYCTIGGSLSRSSQGTLVTVSSGGGGSGGGSEVQLVESGGGSVQPGGSLRLSCAASGSIFSSTAMAWYRQAPGKRRDLVAAINTVGVTKYADSVKGRFTISRDNAKNTVYLQMNSLRPEDTALYYCTSDPRRGWDTRYWGQGTLVTVSSA
no binding | 0.057 | 0.12 | 103 | 7.7 | A041600085 (VHH, also called 307-9GS-ALB23002-9GS-307 (D1E)-A) DVQLVESGGGLVQPGGSLRLSCAASGSIFSSTAMAWYRQAPGKRRDLVAAISTVGVTKYADSVKGRFTISRDNSKNTVYLQMNSLRPEDTAVYYCTSDPRRGWDTRYWGQGTLVTVSSGGGGSGGGSEVQLVESGGGVVQPGGSLRLSCAASGFTFRSFGMSWVRQAPGKGPEWVSSISGSGSDTLYADSVKGRFTISRDNSKNTLYLQMNSLRPEDTALYYCTIGGSLSRSSQGTLVTVSSGGGGSGGGSEVQLVESGGGLVQPGGSLRLSCAASGSIFSSTAMAWYRQAPGKRRDLVAAISTVGVTKYADSVKGRFTISRDNSKNTVYLQMNSLRPEDTAVYYCTSDPRRGWDTRYWGQGTLVTVSSA

Further lines, the binder ahead of its results:

Binder | binding result [1] | EC50 [2] [nM] | EC50 [3] [nM] | % inhibition [4] [%] | IC50 [4] [nM]
A041600035 (VHH, Trivalent ISVD construct (two anti-CX3CR1 ISVDs, one anti-albumin ISVD), C-terminal alanine included in the entry; also called 54A12_SO (E1D)-9GS-54A12_SO-9GS-ALB23002-A) DVQLVESGGGSVQPGGSLRLSCAASGSIFSSTAMAWYRQAPGKQRDLVAVISTVGITKYADSVKGRFTISRDNAKNTVYLQMNSLRPEDTALYYCTSDARRGWDTRYWGQGTLVTVSSGGGGSGGGSEVQLVESGGGSVQPGGSLRLSCAASGSIFSSTAMAWYRQAPGKQRDLVAVISTVGITKYADSVKGRFTISRDNAKNTVYLQMNSLRPEDTALYYCTSDARRGWDTRYWGQGTLVTVSSGGGGSGGGSEVQLVESGGGVVQPGGSLRLSCAASGFTFRSFGMSWVRQAPGKGPEWVSSISGSGSDTLYADSVKGRFTISRDNSKNTLYLQMNSLRPEDTALYYCTIGGSLSRSSQGTLVTVSSA | no binding | 0.25 | 0.13 | 99 | 2.5
A041600041 (VHH, Trivalent ISVD construct (two anti-CX3CR1 ISVDs, one anti-albumin ISVD), C-terminal alanine included in the entry; also called 54A12_SO (E1D)-9GS-66B02_SO-9GS-ALB23002-A) DVQLVESGGGSVQPGGSLRLSCAASGSIFSSTAMAWYRQAPGKQRDLVAVISTVGITKYADSVKGRFTISRDNAKNTVYLQMNSLRPEDTALYYCTSDARRGWDTRYWGQGTLVTVSSGGGGSGGGSEVQLVESGGGSVQPGGSLRLSCAASGSIFSSTAMAWYRQAPGKRRDLVAAINTVGVTKYADSVKGRFTISRDNAKNTVYLQMNSLRPEDTALYYCTSDPRRGWDTRYWGQGTLVTVSSGGGGSGGGSEVQLVESGGGVVQPGGSLRLSCAASGFTFRSFGMSWVRQAPGKGPEWVSSISGSGSDTLYADSVKGRFTISRDNSKNTLYLQMNSLRPEDTALYYCTIGGSLSRSSQGTLVTVSSA | no binding | 0.089 | 0.16 | 97 | 2.7
